Reference: the supplement of paper PMC9732359
± gives the uncertainty stated by the source.

Assay: protein stability index of a GFP-peptide fusion (yeast GPS) (PSI 1-4); higher = more stable; sorted into four equal gates, so the index is relative within each strain
Procedure, shortened: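 Each library plasmid carries Cherry plus GFP with a tiled 17-residue yeast protein peptide fused downstream, and the pooled library was carried in yeast. Mid-log cultures in leucine-free medium were sorted into four equal gates by GFP/Cherry ratio. Reads from Illumina sequencing of PCR-amplified plasmids from each gate were assigned to strains by barcodes. Per peptide, the protein stability index was computed as the summed products of gate read frequency and gate number.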

Sequence	protein stability index (doa10∆)	protein stability index (pdr5∆)	protein stability index (san1∆)	protein stability index (ubr1∆)
LVDSLATFTSIELTSYE [RPN7]	1.57 ± 0.057	2.08 ± 0.061	1.68 ± 0.057	1.72 ± 0.027
FHKQQAHFWKPVLNLDK [RPL28]	2.93 ± 0.067	3.19 ± 0.056	2.76 ± 0.057	2.93 ± 0.052
DPALLRPGRIDRKIEFP [RPT6]	3.18 ± 0.075	3.32 ± 0.077	3.05 ± 0.057	3.26 ± 0.048
EDFDVEHFSDEETYEEK [RPO26]	3.64 ± 0.11	3.05 ± 0.2	3.19 ± 0.22	3.45 ± 0.11
LEDIYTSAHEAIRADPA [RPL5]	3.04 ± 0.066	2.98 ± 0.082	3.13 ± 0.072	3.19 ± 0.051
EAAKPSLSFGSGSAGAN [YJL041W/NSP1]	2.83 ± 0.11	2.81 ± 0.13	3.02 ± 0.13	3 ± 0.071
LLLNYLELIGVLSINPD [MED7]	1.6 ± 0.067	1.78 ± 0.063	1.31 ± 0.14	1.49 ± 0.058
NSEKYYDEDPYGFEDES [RPB2]	3.47 ± 0.18	3.32 ± 0.079	3.27 ± 0.066	3.25 ± 0.13
ALKGPVRDKLDEYQAAV [DPB4]	3.31 ± 0.072	3.29 ± 0.05	3.2 ± 0.052	3.17 ± 0.064
FPTDLEIFQLFTNPSVD [SWI1]	2.59 ± 0.069	2.88 ± 0.078	2.67 ± 0.07	2.35 ± 0.056
IRQAIAKGLVAYHQKYV [RPS16A]	1.21 ± 0.096	1.27 ± 0.069	1.41 ± 0.18	1.1 ± 0.033
AFHLHCINKWIKTRDAC [HRT1]	1.86 ± 0.089	2 ± 0.076	1.66 ± 0.14	2.19 ± 0.065
LCQINKCSTRGLSTDHT [YML103C/NUP188]		2.47 ± 0.23		3.13 ± 0.18
PNFLGNCNIKDFKPPYI [SWP82]	2.62 ± 0.048	2.64 ± 0.041	2.61 ± 0.054	2.65 ± 0.031
SDAMSIDEEDKDSESFS [YCG1]	2.85 ± 0.15	1.95 ± 0.1	2.61 ± 0.13	2.4 ± 0.069
KMENFEFLPLSLHILMI [SRB8]	2.79 ± 0.077	2.8 ± 0.054	1.91 ± 0.076	2.85 ± 0.06
NSPSSALRALQENGTIF [YDL088C/ASM4]	2.13 ± 0.062	2.05 ± 0.053	1.53 ± 0.069	2.01 ± 0.039
DHVDGSSEFVSQDTKVI [RRP46]	2.64 ± 0.056	2.24 ± 0.053	2.44 ± 0.053	2.8 ± 0.053
DIKAPSTFENRNVGKTL [RPS1A]	2.95 ± 0.074	2.72 ± 0.06	3 ± 0.052	3.1 ± 0.057
DTDNECVAAWGVCNHAF [HRT1]	3.25 ± 0.095	3.3 ± 0.059	3.33 ± 0.054	3.15 ± 0.05
ARDLLDDLEKTLDKKDS [RPN9]	3.21 ± 0.17	2.75 ± 0.11	3.15 ± 0.12	2.56 ± 0.1
LANFVAKGFYHTPMVNF [SRB8]	2.57 ± 0.059	2.27 ± 0.044	1.92 ± 0.082	2.32 ± 0.048

Sequence	protein stability index (doa10∆)	protein stability index (pdr5∆)	protein stability index (san1∆)	protein stability index (ubr1∆)
ESSYTEVTKLLKNEGID [SMC4]	3.1 ± 0.082	3.17 ± 0.15		3.49 ± 0.098
FSKAIEWDMLNVEEEQI [BRR2]	2.71 ± 0.078	3.03 ± 0.11	2.54 ± 0.07	2.93 ± 0.06
SIGASIADLASLEQLLG [YCS4]	2.84 ± 0.099	2.94 ± 0.064	2.9 ± 0.076	2.92 ± 0.033
KDDRFVPVRKFKGNNGV [RPN2]	2.02 ± 0.07	2.77 ± 0.09	2.94 ± 0.069	2.28 ± 0.053
IGDVDGLIVNPVKVSGT [POP5]	2.73 ± 0.048	3.02 ± 0.046	2.66 ± 0.035	2.64 ± 0.035
IGTNDLFQVESAPKISS [SIR4]	2.42 ± 0.049	2.9 ± 0.047	2.63 ± 0.047	2.43 ± 0.035
FNELCDPESRTQSYNNQ [POP1]	3.09 ± 0.14	3.02 ± 0.12	2.95 ± 0.11	2.96 ± 0.084
FGRKNDRQCMIMDELLS [DIB1]	2.57 ± 0.047	2.65 ± 0.038	2.49 ± 0.057	2.73 ± 0.034
LQILAMLLLNIFISSDH [YMR129W/POM152]	1.72 ± 0.058	1.36 ± 0.061	1.35 ± 0.08	1.13 ± 0.05
DIFITPTPVVTISEKEQ [SSN2]	1.76 ± 0.079	1.95 ± 0.077	1.48 ± 0.12	1.67 ± 0.069
VQCHGSFATATCVTCHW [SIR2]	2.28 ± 0.047	2.55 ± 0.046	2.26 ± 0.045	2.51 ± 0.031
KDNVEHLVMRAISLGLL [RPN9]	2.43 ± 0.075	2.92 ± 0.074	2.48 ± 0.071	2.76 ± 0.059
TALALKYLIKYNVFRQH [CSI1]	1.63 ± 0.06	1.8 ± 0.049	1.7 ± 0.11	1.86 ± 0.053
SDSIELLKQYPKDSSST [YJR042W/NUP85]	2.62 ± 0.047	2.77 ± 0.051	2.61 ± 0.044	2.82 ± 0.041
NDLIVNYEDLATTQAAS [BRN1]	2.98 ± 0.07	3.09 ± 0.087	3.34 ± 0.046	3.25 ± 0.061
QMSDKHATVVPPEEFSN [SRB7]	2.98 ± 0.05	2.88 ± 0.056	2.71 ± 0.059	2.86 ± 0.047
LDENKWYKFNDDKVSVV [UBP6]	2.87 ± 0.12	3.06 ± 0.091	3.06 ± 0.1	2.97 ± 0.081
SASTSATGISGSVSEET [ECM29]	3.34 ± 0.047	3.25 ± 0.047	3.12 ± 0.041	3.33 ± 0.042
LENATWTMRIEGRLLDN [SNF12]	2.64 ± 0.099	2.89 ± 0.12	2.65 ± 0.1	2.92 ± 0.066
YHGISKNDNIKKSVNKL [POP6]	2.7 ± 0.064	2.75 ± 0.049	2.77 ± 0.05	2.85 ± 0.046
CEISGSIEQLRNVVEDI [BRN1]	3.25 ± 0.18	3.33 ± 0.2	3.09 ± 0.19	
KSSIEKDPSPEILVLYN [SIN4]	2.91 ± 0.05	2.9 ± 0.055	2.91 ± 0.045	2.82 ± 0.043
